Where no end group is shown, it is not given here. The star is where a group is joined. Biotin = O=C1N[C@H]2[C@H](CS[C@H]2CCCCC(=O)*)N1
B1: mouse vitronectin (other)
chain: DQESCKGRCTQGFMASKKCQCDELCTYYQSCCADYMEQCKPQVTRGDVFTMPEDDYWSYDYVEEPKNNTNTGVQPENTSPPGDLNPRTDGTLKPTAFLDPEEQPSTPAPKVEQQEEILRPDTTDQGTPEFPEEELCSGKPFDAFTDLKNGSLFAFRGQYCYELDETAVRPGYPKLIQDVWGIEGPIDAAFTRINCQGKTYLFKGSQYWRFEDGVLDPGYPRNISEGFSGIPDNVDAAFALPAHRYSGRERVYFFKGKQYWEYEFQQQPSQEECEGSSLSAVFEHFALLQRDSWENIFELLFWGRSSDGAREPQFISRNWHGVPGKVDAAMAGRIYVTGSLSHSAQAKKQKSKRRSRKRYRSRRGRGHRRSQSSNSRRSSRSIWFSLFSSEESGLGTYNNYDYDMDWLVPATCEPIQSVYFFSGDKYYRVNLRTRRVDSVNPPYPRSIAQYWLGCPTSEK
notes: also called mouse Vn
B2: Neisseria meningitidis Opc of strain H44/76, expressed on meningococci (other)
chain: AQELQTANEFTVHTDLSSISSTRAFLKEKHKAAKHISVRADIPFDANQGIRLEAGFGRSKKNIINLETDENKLGKTKNVKLPTGVPENRIDLYTGYTYTQTLSDSLNFRVGAGLGFESSKDSIKTTKHTLHSSRQSWLAKVHADLLSQLGNGWYINPWSEVKFDLNSRYKLNTGVTNLKKDINQKTNGWGFGLGANIGKKLGESASIEAGPFYKQRTYKESGEFSVTTKSGDVSLTIPKTSIREYGLRVGIKF
notes: also called Opc-expressing Nm; (GB) Opc+Δµ
B3: control peptide GS-22 (peptide)
peptide: Biotin-GSNENQKTVKAESVPNMSFDQS
B4: biotinylated vitronectin peptide VA-26 (amino acids 43-68) (peptide)
peptide: Biotin-VTRGDVFTMPEDEYTVYDDGEEKNNA
notes: Synthetic peptide of human vitronectin V43-A68
B5: biotinylated vitronectin peptide AR-36 (Vn residues A360-R395, heparin-binding region) (peptide)
peptide: Biotin-APRPSLAKKQRFRHRNRKGYRSQRGHSRGRNQNSRR
notes: Synthetic peptide immobilised on extravidin coated plates; also called HBD peptide
B6: rabbit vitronectin (other)
chain: DQESCKDRCTEGFNANRKCQCDELCSYYQSCCADYAAECKPQVTRGDVFTMPEDEYGPYDYIEQTKDNASVHAQPESPTVGQEPTLSPDLQTEGGAEPTHEVPLEPEMETLRPEGEDLQAGTTELGTSASPAEEELCSGKPFDAFTDLKNGSLFAFRGQYCYELDETAVRPGYPKLIQDVWGIEGPIDAAFTRINCQGKTYLFKGSQYWRFEDGILDPDYPRNISEGFSGIPDNVDAAFALPAHSYSGRERVYFFKGDKYWEYQFQQQPSQEECEGSSLSAVFEHFAMLHRDSWEDIFKLLFWGRPSGGARQPQFISRDWHGVPGKVDAAMAGRIYISGLTPSPSAKKQKSRRRSRKRYRSRYGRGRSQNSRRLSRSISRLWFSSEEVSLGPYNYEDYETSWLKPATSEPIQSVYFFSGDKYYRVNLRTQRVDTVNPPYPRSIAQYWLGCPAPGGQ
notes: also called rabbit Vn
B7: Neisseria meningitidis Hsf (Msf) of strain H44/76, expressed on meningococci (other)
chain: NNEEQEEDLYLDPVQRTVAVLIVNSDKEGTGEKEKVEENSDWAVYFNEKGVLTAREITLKAGDNLKIKQNGTNFTYSLKKDLTDLTSVGTEKLSFSANGNKVNITSDTKGLNFAKETAGTNGDTTVHLNGIGSTLTDTLLNTGATTNVTNDNVTDDEKKRAASVKDVLNAGWNIKGVKPGTTASDNVDFVRTYDTVEFLSADTKTTTVNVESKDNGKKTEVKIGAKTSVIKEKDGKLVTGKDKGENGSSTDEGEGLVTAKEVIDAVNKAGWRMKTTTANGQTGQADKFETVTSGTNVTFASGKGTTATVSKDDQGNITVMYDVNVGDALNVNQLQNSGWNLDSKAVAGSSGKVISGNVSPSKGKMDETVNINAGNNIEITRNGKNIDIATSMTPQFSSVSLGAGADAPTLSVDGDALNVGSKKDNKPVRITNVAPGVKEGDVTNVAQLKGVAQNLNNRIDNVDGNARAGIAQAIATAGLVQAYLPGKSMMAIGGGTYRGEAGYAIGYSSISDGGNWIIKGTASGNSRGHFGASASVGYQW
notes: Opc-deficient variants or mutants isolate the Msf effect; also called NhhA; NMB0992

What was measured:
[1] = molecular target: B7; experiment: ELISA, bacteria on immobilised vitronectin
control peptide SY-30 = control peptide SY-30 (N-terminal biotin); experiment: ELISA with immobilised peptides
control peptide GS-22 = molecular target: B3; experiment: ELISA with immobilised peptides
[2] = molecular target: T1, native human vitronectin preparation (nVn) (human, UniProt P04004 20-478); experiment: binding of bacteria to nVn against aVn as reference
T1 construct: Same protein as m4 in the native, closed conformation; also called native Vn

[3] = molecular target: B7; experiment: ELISA with immobilised peptides
[4] = molecular target: B7; experiment: ELISA, bacteria on immobilised biotinylated peptide
[5] = molecular target: B7; experiment: ELISA, bacteria on peptide immobilised on extravidin coated plates
[6] = molecular target: B7; experiment: ELISA, bacteria on immobilised heparin-affinity purified vitronectin
[7] = molecular target: human fibronectin (from serum) (human, UniProt P02751 32-2296); experiment: bacteria incubated in decomplemented serum, dot blot with specific antibodies
human fibronectin (from serum), sequence (P02751 other isoform, or with tags, fused parts or gaps limits assumed): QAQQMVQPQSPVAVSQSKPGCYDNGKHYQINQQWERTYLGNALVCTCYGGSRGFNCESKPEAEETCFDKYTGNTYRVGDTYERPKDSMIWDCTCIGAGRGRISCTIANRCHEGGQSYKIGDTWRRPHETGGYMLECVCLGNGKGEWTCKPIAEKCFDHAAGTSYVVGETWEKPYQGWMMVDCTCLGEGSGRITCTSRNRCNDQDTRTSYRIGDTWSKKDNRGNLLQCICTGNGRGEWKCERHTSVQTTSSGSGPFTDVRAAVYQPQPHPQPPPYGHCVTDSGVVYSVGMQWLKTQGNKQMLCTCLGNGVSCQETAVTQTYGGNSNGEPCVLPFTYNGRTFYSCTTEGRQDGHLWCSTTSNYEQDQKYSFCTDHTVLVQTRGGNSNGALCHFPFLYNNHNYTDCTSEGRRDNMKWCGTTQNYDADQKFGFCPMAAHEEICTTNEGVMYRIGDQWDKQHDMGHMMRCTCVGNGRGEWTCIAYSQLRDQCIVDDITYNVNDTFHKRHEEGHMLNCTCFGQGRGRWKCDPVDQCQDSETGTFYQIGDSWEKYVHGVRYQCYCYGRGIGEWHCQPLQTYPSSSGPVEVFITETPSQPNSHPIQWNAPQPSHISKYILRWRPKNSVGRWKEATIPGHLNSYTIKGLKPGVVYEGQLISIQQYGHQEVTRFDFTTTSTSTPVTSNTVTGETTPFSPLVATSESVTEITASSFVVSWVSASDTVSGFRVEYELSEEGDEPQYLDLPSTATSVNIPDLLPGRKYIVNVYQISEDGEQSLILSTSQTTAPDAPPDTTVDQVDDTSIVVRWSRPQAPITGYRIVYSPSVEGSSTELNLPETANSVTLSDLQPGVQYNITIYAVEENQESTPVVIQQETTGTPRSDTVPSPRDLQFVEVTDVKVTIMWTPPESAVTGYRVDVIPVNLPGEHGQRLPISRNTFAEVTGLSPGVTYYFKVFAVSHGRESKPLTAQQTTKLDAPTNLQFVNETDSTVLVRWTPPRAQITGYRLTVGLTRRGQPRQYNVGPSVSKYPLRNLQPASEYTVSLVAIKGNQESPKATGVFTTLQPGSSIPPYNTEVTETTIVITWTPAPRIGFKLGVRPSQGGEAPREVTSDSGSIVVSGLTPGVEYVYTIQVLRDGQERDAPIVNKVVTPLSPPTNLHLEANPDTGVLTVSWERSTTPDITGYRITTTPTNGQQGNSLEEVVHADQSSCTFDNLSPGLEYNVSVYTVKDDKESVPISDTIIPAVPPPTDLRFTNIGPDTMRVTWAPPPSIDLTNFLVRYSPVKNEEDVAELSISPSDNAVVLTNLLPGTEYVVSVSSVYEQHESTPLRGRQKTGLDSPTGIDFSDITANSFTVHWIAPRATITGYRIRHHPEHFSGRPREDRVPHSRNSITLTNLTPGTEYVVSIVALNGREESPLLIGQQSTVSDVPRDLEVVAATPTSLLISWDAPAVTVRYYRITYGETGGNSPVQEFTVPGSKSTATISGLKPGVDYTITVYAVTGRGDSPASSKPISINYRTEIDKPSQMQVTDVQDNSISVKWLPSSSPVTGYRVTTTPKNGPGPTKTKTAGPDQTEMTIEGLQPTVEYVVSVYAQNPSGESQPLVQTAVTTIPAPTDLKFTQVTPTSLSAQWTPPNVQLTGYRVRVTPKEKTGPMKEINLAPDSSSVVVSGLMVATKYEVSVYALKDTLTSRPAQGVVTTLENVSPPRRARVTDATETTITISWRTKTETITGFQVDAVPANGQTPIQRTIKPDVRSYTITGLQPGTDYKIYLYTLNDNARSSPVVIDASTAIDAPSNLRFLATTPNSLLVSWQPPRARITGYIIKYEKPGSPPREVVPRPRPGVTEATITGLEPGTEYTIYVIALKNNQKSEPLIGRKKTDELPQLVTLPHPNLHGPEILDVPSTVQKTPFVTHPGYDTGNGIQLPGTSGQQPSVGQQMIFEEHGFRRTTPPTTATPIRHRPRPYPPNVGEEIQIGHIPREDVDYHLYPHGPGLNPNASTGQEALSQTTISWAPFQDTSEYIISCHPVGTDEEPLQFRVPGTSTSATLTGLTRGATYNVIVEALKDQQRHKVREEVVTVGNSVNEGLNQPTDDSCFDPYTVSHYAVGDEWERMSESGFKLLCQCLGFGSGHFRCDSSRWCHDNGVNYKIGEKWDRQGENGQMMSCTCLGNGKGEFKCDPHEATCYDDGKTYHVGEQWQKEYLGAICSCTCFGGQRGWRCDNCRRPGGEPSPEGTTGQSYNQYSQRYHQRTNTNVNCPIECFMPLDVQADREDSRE

T1 sequence (P04004 20-478 limits assumed): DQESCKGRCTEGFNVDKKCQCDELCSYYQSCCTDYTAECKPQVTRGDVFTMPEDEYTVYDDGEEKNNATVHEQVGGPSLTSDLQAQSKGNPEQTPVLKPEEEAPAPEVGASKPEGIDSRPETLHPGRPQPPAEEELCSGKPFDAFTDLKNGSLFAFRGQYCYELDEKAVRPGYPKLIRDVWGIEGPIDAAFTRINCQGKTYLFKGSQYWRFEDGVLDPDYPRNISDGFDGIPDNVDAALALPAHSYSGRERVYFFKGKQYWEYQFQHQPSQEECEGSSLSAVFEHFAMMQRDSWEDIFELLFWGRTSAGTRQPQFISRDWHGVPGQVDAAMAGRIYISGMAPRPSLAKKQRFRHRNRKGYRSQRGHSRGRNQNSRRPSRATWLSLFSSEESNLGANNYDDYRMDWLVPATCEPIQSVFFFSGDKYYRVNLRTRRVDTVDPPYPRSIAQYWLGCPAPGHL

B1
binding result [1]: binds

B2
binding result (control peptide SY-30): no binding
binding result (control peptide GS-22): no binding
binding relative to the fully activated preparation of Vn [2]: ~30%

B3
binding result [3]: no binding

B4
binding result [4]: binds

B5
binding result [5]: binds

B6
binding result [6]: binds

B7
binding relative to the fully activated preparation of Vn [2]: ~30%
binding result [7]: no binding (tested: 10% pooled human serum)
